Data taken from the supplement of paper PMC5998384.

How the values were obtained:
HeLa Kyoto [1] = experiment: solubility in G1/S (NP-40 vs SDS abundance) (log2 ratio); higher = more soluble; details: cell cycle stage: G1/S
HeLa Kyoto [2] = experiment: solubility change mitosis vs G1/S (difference of NP-40 vs SDS log2 ratios) (log2 ratio difference); higher = more soluble in mitosis
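Throughout, for solubility change mitosis vs G1/S (difference of NP-40 vs SDS log2 ratios): synchronized HeLa Kyoto cells (double thymidine block for G1/S, nocodazole release for mitosis), protein amounts in NP-40 versus SDS lysates quantified by mass spectrometry, three biological replicates.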
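Throughout, for solubility in G1/S (NP-40 vs SDS abundance): HeLa Kyoto cells arrested at G1/S by double thymidine block, proteins quantified by TMT10plex mass spectrometry in mild NP-40 versus SDS extracts, three biological replicates.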

Sequence | solubility in G1/S (log2) (HeLa Kyoto [1]) | solubility change mitosis (log2) (HeLa Kyoto [2])
MEIAPQEAPPVPGADGDIEEAPAEAGSPSPASPPADGRLKAAAKRVTFPSDEDIVSGAVEPKDPWRHAQNVTVDEVIGAYKQACQKLNCRQIPKLLRQLQEFTDLGHRLDCLDLKGEKLDYKTCEALEEVFKRLQFKVVDLEQTNLDEDGASALFDMIEYYESATHLNISFNKHIGTRGWQAAAHMMRKTSCLQYLDARNTPLLDHSAPFVARALRIRSSLAVLHLENASLSGRPLMLLATALKMNMNLRELYLADNKLNGLQDSAQLGNLLKFNCSLQILDLRNNHVLDSGLAYICEGLKEQRKGLVTLVLWNNQLTHTGMAFLGMTLPHTQSLETLNLGHNPIGNEGVRHLKNGLISNRSVLRLGLASTKLTCEGAVAVAEFIAESPRLLRLDLRENEIKTGGLMALSLALKVNHSLLRLDLDREPKKEAVKSFIETQKALLAEIQNGCKRNLVLAREREEKEQPPQLSASMPETTATEPQPDDEPAAGVQNGAPSPAPSPDSDSDSDSDGEEEEEEEGERDETPCPALVPPTDSLGPGDRSPPGSPSTPTEQRISVSSPGRGHKVFVVTRVESPPERAEPPASPTPPSPPPPPSPPASPSLPPAGAIDTRDTGSSEPQPPPEPPRSGPPLPNGLKPEFALALPPEPPPGPEVKGGSCGLEHELSCSKNEKELEELLLEASQESGQETL [PPP1R37] | 0.0581 | -0.284
MEKLSALQEQKGELRKRLSYTTHKLEKLETEFDSTRHYLEIELRRAQEELEKVTEKLRRIQSNYMALQRINQELEDKLYRMGQHYEEEKRALSHEIVALNSHLLEAKVTIDKLSEDNELYRKDCNLAAQLLQCSQTYGRVHKVSELPSDFQERVSLHMEKHGCSLPSPLCHPAYADSVPTCVIAKVLEKPDPASLSSRLSDASARDLAFCDGVEKPGPRPPYKGDIYCSDTALYCPEERRRDRRPSVDAPVTDVGFLRAQNSTDSAAEEEEEAEAAAFPAGFQHEAFPSYAGSLPTSSSYSSFSATSEEKEHAQASTLTASQQAIYLNSRDELFDRKPPATTYEGSPRFAKATAAVAAPLEAEVAPGFGRTMSPYPAETFRFPASPGPQQALMPPNLWSLRAKPGTARLPGEDMRGQWRPLSVEDIGAYSYPVSAAGRASPCSFSERYYGGAGGSPGKKADGRASPLYASYKADSFSEGDDLSQGHLAEPCFLRAGGDLSLSPGRSADPLPGYAPSEGGDGDRLGVQLCGTASSPEPEQGSRDSLEPSSMEASPEMHPAARLSPQQAFPRTGGSGLSRKDSLTKAQLYGTLLN [BEGAIN] | 0.208 | 0.103
MEKLYSENEGMASNQGKMENEEQPQDERKPEVTCTLEDKKLENEGKTENKGKTGDEEMLKDKGKPESEGEAKEGKSEREGESEMEGGSEREGKPEIEGKPESEGEPGSETRAAGKRPAEDDVPRKAKRKTNKGLAHYLKEYKEAIHDMNFSNEDMIREFDNMAKVQDEKRKSKQKLGAFLWMQRNLQDPFYPRGPREFRGGCRAPRRDIEDIPYV [TCEAL4] | 0.49 | 0.452
MEKPRSIEETPSSEPMEEEEDDDLELFGGYDSFRSYNSSVGSESSSYLEESSEAENEDREAGELPTSPLHLLSPGTPRSLDGSGSEPAVCEMCGIVGTREAFFSKTKRFCSVSCSRSYSSNSKKASILARLQGKPPTKKAKVLHKAAWSAKIGAFLHSQGTGQLADGTPTGQDALVLGFDWGKFLKDHSYKAAPVSCFKHVPLYDQWEDVMKGMKVEVLNSDAVLPSRVYWIASVIQTAGYRVLLRYEGFENDASHDFWCNLGTVDVHPIGWCAINSKILVPPRTIHAKFTDWKGYLMKRLVGSRTLPVDFHIKMVESMKYPFRQGMRLEVVDKSQVSRTRMAVVDTVIGGRLRLLYEDGDSDDDFWCHMWSPLIHPVGWSRRVGHGIKMSERRSDMAHHPTFRKIYCDAVPYLFKKVRAVYTEGGWFEEGMKLEAIDPLNLGNICVATVCKVLLDGYLMICVDGGPSTDGLDWFCYHASSHAIFPATFCQKNDIELTPPKGYEAQTFNWENYLEKTKSKAAPSRLFNMDCPNHGFKVGMKLEAVDLMEPRLICVATVKRVVHRLLSIHFDGWDSEYDQWVDCESPDIYPVGWCELTGYQLQPPVAAEPATPLKAKEATKKKKKQFGKKRKRIPPTKTRPLRQGSKKPLLEDDPQGARKISSEPVPGEIIAVRVKEEHLDVASPDKASSPELPVSVENIKQETDD [L3MBTL2] | -0.293 | 0.0658
MELLCCEGTRHAPRAGPDPRLLGDQRVLQSLLRLEERYVPRASYFQCVQREIKPHMRKMLAYWMLEVCEEQRCEEEVFPLAMNYLDRYLSCVPTRKAQLQLLGAVCMLLASKLRETTPLTIEKLCIYTDHAVSPRQLRDWEVLVLGKLKWDLAAVIAHDFLAFILHRLSLPRDRQALVKKHAQTFLALCATDYTFAMYPPSMIATGSIGAAVQGLGACSMSGDELTELLAGITGTEVDCLRACQEQIEAALRESLREASQTSSSPAPKAPRGSSSQGPSQTSTPTDVTAIHL [CCND3] | 0.226 | -0.386
MEPPMEPSGGEQEPGAVRFLDLPWEDVLLPHVLNRVPLRQLLRLQRVSRAFRSLVQLHLAGLRRFDAAQVGPQIPRAALARLLRDAEGLQELALAPCHEWLSDEDLVPVLARNPQLRSVALGGCGQLSRRALGALAEGCPRLQRLSLAHCDWVDGLALRGLADRCPALEELDLTACRQLKDEAIVYLAQRRGAGLRSLSLAVNANVGDAAVQELARNCPELHHLDLTGCLRVGSDGVRTLAEYCPVLRSLRVRHCHHVAESSLSRLRKRGVDIDVEPPLHQALVLLQDMAGFAPFVNLQV [FBXL15] | 0.189 | -0.195
MERKRWECPALPQGWEREEVPRRSGLSAGHRDVFYYSPSGKKFRSKPQLARYLGGSMDLSTFDFRTGKMLMSKMNKSRQRVRYDSSNQVKGKPDLNTALPVRQTASIFKQPVTKITNHPSNKVKSDPQKAVDQPRQLFWEKKLSGLNAFDIAEELVKTMDLPKGLQGVGPGCTDETLLSAIASALHTSTMPITGQLSAAVEKNPGVWLNTTQPLCKAFMVTDEDIRKQEELVQQVRKRLEEALMADMLAHVEELARDGEAPLDKACAEDDDEEDEEEEEEEPDPDPEMEHV [MBD3] | 0.334 | 0.629
MERMNWLSRLASRGPGHRIPQGANLQTPVMADPETCLMVFKNHWSQVVRILERQGPRAAPGGADDLSAVRNHTYQMLTLLAEDRAVPSAPTGPGPLLEFALHEDLLTRVLTWQLQWDELGDGVEERRAEQLKLFEMLVSEARQPLLRHGPVREALLTLLDACGRPVPSSPALDEGLVLLLSQLCVCVAQEPSLLEFFLQPPPEPGAAPRLLLFSRLVPFVHREGTLGQQARDALLLLMALSAGSPTVGRYIADHSYFCPVLATGLSALYSSLPRKIEVPGDDWHCLRREDWLGVPALALFMSSLEFCNAVIQVAHPLVQKQLVDYIHNGFLVPVMGPALHKTSVEEMIASTAYLELFLRSISEPALLRTFLRFLLLHRHDTHTILDTLVARIGSNSRLCMVSLSLFRTLLNLSCEDVLLQLVLRYLVPCNHVMLSQKPAVRDVDLYGRAADKFLSLIPRCCRHHAPSPPRPEHASWARGPGSPSVDSSSVTTVPRPSTPSRLALFLRQQSLGGSESPGPAPCSPGLSASPASSPGRRPTPAEEPGELEDNYLEYLREARRGVDRCVRACRTWSAPYDGERPSPEPSPFGSRTKKRSLLPEEDRNNVGEGEEEELGRRGRAGGAGEGPGHLPPPQLNGVPGSWPEGAKKVRLVPKEGAGELLEGISEGMAGLEGFGQELRELEVALSNGGTGSESPLEPPLPLEEEEAYESFTCPPEPPGPFLSSPLRTLNQLPSQPFTGPFMAVLFAKLENMLQNSVYVNFLLTGLVAQLACHPQPLLRSFLLNTNMVFQPSVKSLLQVLGSVKNKIENFAASQEDFPALLSKAKKYLIARGKLDWAEGPAAGPAPRRSDPLVKSRRPSLGELLLRHAHSPTRARQAAQLVLQPGRDGAGLGLSGGSPGASTPVLLTRGGAPERQGEALRVKNAVYCAVIFPEFLKELAAISQAHAVTSPFLLETSEEGSGPLISGCGPLNP [FAM160A2] | 0.177 | 0.0167
METPPVNTIGEKDTSQPQQEWEKNLRENLDSVIQIRQQPRDPPTETLELEVSPDPASQILEHTQGAEKLVAELEGDSHKSHGSTSQMPEALQASDLWYCPDGSFVKKIVIRGHGLDKPKLGSCCRVLALGFPFGSGPPEGWTELTMGVGPWREETWGELIEKCLESMCQGEEAELQLPGHSGPPVRLTLASFTQGRDSWELETSEKEALAREERARGTELFRAGNPEGAARCYGRALRLLLTLPPPGPPERTVLHANLAACQLLLGQPQLAAQSCDRVLEREPGHLKALYRRGVAQAALGNLEKATADLKKVLAIDPKNRAAQEELGKVVIQGKNQDAGLAQGLRKMFG [FKBPL] | 0.618 | 0.144
METSSMLSSLNDECKSDNYIEPHYKEWYRVAIDILIEHGLEAYQEFLVQERVSDFLAEEEINYILKNVQKVAQSTAHGTDDSCDDTLSSGTYWPVESDVEAPNLDLGWPYVMPGLLGGTHIDLLFHPPRAHLLTIKETIRKMIKEARKVIALVMDIFTDVDIFKEIVEASTRGVSVYILLDESNFNHFLNMTEKQGCSVQRLRNIRVRTVKGQDYLSKTGAKFHGKMEQKFLLVDCQKVMYGSYSYMWSFEKAHLSMVQIITGQLVESFDEEFRTLYARSCVPSSFAQEESARVKHGKALWENGTYQHSVSSLASVSSQRNLFGRQDKIHKLDSSYFKNRGIYTLNEHDKYNIRSHGYKPHFVPNFNGPNAIRQFQPNQINENWKRHSYAGEQPETVPYLLLNRALNRTNNPPGNWKKPSDSLSVASSSREGYVSHHNTPAQSFANRLAQRKTTNLADRNSNVRRSFNGTDNHIRFLQQRMPTLEHTTKSFLRNWRIESYLNDHSEATPDSNGSALGDRFEGYDNPENLKANALYTHSRLRSSLVFKPTLPEQKEVNSCTTGSSNSTIIGSQGSETPKEVPDTPTNVQHLTDKPLPESIPKLPLQSEAPKMHTLQVPENHSVALNQTTNGHTESNNYIYKTLGVNKQTENLKNQQTENLLKRRSFPLFDNSKANLDPGNSKHYVYSTLTRNRVRQPEKPKEDLLKSSKSMHNVTHNLEEDEEEVTKRNSPSGTTTKSVSIAALLDVNKEESNKELASKKEVKGSPSFLKKGSQKLRSLLSLTPDKKENLSKNKAPAFYRLCSSSDTLVSEGEENQKPKKSDTKVDSSPRRKHSSSSNSQGSIHKSKEDVTVSPSQEINAPPDENKRTPSPGPVESKFLERAGDASAPRFNTEQIQYRDSREINAVVTPERRPTSSPRPTSSELLRSHSTDRRVYSRFEPFCKIESSIQPTSNMPNTSINRPEIKSATMGNSYGRSSPLLNYNTGVYRSYQPNENKFRGFMQKFGNFIHKNK [FAM83B] | -1.47 | 0.383
MEVEAAEARSPAPGYKRSGRRYKCLSCTKTFPNAPRAARHAATHGPADCSEEVAEVKPKPETEAKAEEASGEKVSGSAAKPRPYACPLCPKAYKTAPELRSHGRSHTGEKPFPCPECGRRFMQPVCLRVHLASHAGELPFRCAHCPKAYGALSKLKIHQRGHTGERPYACADCGKSFADPSVFRKHRRTHAGLRPYSCERCGKAYAELKDLRNHERSHTGERPFLCSECGKSFSRSSSLTCHQRIHAAQKPYRCPACGKGFTQLSSYQSHERTHSGEKPFLCPRCGRMFSDPSSFRRHQRAHEGVKPYHCEKCGKDFRQPADLAMHRRVHTGDRPFKCLQCDKTFVASWDLKRHALVHSGQRPFRCEECGRAFAERASLTKHSRVHSGERPFHCNACGKSFVVSSSLRKHERTHRSSEAAGVPPAQELVVGLALPVGVAGESSAAPAAGAGLGDPPAGLLGLPPESGGVMATQWQVVGMTVEHVECQDAGVREAPGPLEGAGEAGGEEADEKPPQFVCRECKETFSTMTLLRRHERSHPELRPFPCTQCGKSFSDRAGLRKHSRTHSSVRPYTCPHCPKAFLSASDLRKHERTHPVPMGTPTPLEPLVALLGMPEEGPA [ZNF668] | -0.985 | 0.453
